Results taken from patent publication US20210046117A1.
Read-outs that look alike come from different tables or passages of the source.

Legend:
[1] = molecular target: CD19 on CD19+ Raji B cells (UniProt P15391); test: cell-based or functional assay
[2] = molecular target: CD19 on CD19+ Raji B cells (UniProt P15391); test: cell-based or functional assay; remark: listed apart in the source

UniProt P15391, sequence (P15391 20-556 limits assumed): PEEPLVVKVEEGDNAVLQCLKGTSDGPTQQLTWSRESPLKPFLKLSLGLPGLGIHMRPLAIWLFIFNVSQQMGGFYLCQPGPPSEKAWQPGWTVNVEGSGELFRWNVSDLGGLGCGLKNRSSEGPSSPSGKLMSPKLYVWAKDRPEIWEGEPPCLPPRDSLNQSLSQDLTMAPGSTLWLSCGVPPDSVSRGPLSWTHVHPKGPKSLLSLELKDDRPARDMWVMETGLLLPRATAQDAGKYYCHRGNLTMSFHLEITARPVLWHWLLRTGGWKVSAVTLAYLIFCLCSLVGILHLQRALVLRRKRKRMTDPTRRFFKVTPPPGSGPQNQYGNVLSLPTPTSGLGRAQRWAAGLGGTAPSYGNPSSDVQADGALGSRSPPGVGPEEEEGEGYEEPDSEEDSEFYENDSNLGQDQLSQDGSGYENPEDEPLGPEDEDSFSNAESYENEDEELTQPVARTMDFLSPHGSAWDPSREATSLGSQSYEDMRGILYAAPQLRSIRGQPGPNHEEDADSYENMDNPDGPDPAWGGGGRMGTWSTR

activated cells in the population (CD25 and CD69 activation markers, flow cytometry, 24h co-culture) [1]: 0.9 to 84.8% | activated cells in the population (CD25 and CD69 activation markers, flow cytometry, 24h co-culture) [2]: 3.9 to 12.1%
Substance: anti-CD19 CAR (anti-CD19 CAR cassette as described in WO 2012/079000) (receptor)
